Residue numbers refer to the chain shown, from its start.
T1: APBA1_1, Q02410
T1 sequence (Q02410 651-752, limits assumed, looked up): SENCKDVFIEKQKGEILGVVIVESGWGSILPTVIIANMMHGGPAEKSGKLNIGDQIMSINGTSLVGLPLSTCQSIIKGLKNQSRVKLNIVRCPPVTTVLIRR

T2: APBA1_2, Q02410
T2 sequence (Q02410 742-832, limits assumed, looked up): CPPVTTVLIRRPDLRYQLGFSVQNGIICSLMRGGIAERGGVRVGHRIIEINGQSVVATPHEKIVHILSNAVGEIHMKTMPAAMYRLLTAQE

T3: APBA2_2, Q99767
T3 sequence (Q99767 654-744, limits assumed, looked up): T2 sequence (Q02410 742-832, limits assumed, looked up) with R10K, R15K, P59A, H65Q, I66A, A70S, Y84F, A89G

T4: ARHGEF11, O15085
T4 sequence (O15085 42-136, limits assumed, looked up): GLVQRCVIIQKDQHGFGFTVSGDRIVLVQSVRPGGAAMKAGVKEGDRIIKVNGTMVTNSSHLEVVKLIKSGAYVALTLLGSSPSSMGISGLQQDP

T5: DFNB31_1, Q9P202
T5 sequence (Q9P202 135-233, limits assumed, looked up): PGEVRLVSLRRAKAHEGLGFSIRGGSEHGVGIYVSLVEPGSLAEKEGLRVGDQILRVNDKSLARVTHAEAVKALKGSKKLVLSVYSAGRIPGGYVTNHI

T6: DLG3_3, Q92796
T6 sequence (Q92796 374-475, limits assumed, looked up): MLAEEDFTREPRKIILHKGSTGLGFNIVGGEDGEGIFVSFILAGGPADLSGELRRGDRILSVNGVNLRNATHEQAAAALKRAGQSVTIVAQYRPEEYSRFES

T7: GRIP1_2, Q9Y3R0
T7 sequence (Q9Y3R0 145-248, limits assumed, looked up): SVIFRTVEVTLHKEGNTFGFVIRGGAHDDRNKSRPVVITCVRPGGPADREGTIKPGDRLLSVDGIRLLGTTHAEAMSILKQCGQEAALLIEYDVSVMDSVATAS

T8: GRIP1_3, Q9Y3R0
T8 sequence (Q9Y3R0 247-346, limits assumed, looked up): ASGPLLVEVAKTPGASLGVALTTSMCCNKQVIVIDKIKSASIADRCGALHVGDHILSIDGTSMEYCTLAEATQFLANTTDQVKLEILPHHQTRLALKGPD

T9: GRIP1_4, Q9Y3R0
T9 sequence (Q9Y3R0 467-571, limits assumed, looked up): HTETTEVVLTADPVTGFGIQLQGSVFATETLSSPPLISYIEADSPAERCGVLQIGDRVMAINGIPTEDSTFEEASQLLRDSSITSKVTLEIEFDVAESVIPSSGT

T10: HTRA4, P83105
T10 sequence (P83105 378-476, limits assumed, looked up): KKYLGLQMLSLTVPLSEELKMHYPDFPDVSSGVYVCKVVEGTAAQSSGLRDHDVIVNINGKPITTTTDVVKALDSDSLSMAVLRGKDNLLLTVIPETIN

T11: MPP6, Q9NZW5
T11 sequence (Q9NZW5 125-219, limits assumed, looked up): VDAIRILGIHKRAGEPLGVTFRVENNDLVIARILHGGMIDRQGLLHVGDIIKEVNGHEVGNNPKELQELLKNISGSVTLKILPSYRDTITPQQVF

T12: MPP7, Q5T2T1
T12 sequence (Q5T2T1 134-230, limits assumed, looked up): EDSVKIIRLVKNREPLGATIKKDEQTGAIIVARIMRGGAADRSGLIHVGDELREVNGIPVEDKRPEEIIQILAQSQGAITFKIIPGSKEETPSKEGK

T13: PDZD7_3, Q9H5P4
T13 sequence (Q9H5P4 857-944, limits assumed, looked up): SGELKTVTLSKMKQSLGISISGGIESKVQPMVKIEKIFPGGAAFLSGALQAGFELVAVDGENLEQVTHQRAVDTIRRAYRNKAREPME

T14: SNTG2, Q9NY99
T14 sequence (Q9NY99 68-166, limits assumed, looked up): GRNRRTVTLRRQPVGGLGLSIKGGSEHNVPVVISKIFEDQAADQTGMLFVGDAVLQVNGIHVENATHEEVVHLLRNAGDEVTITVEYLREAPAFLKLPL


target: T1, APBA1_1, Q02410; experiment: holdup assay; design: key: below the threshold = too weak to quantify, mostly under pKd 3.1 to 4; conditions: plain residues with an end cap or a label only (N-terminal biotin on a linker: ado-ado)

Binder | pKd
NNNVVKVDSV [MTNR1A, P48039] | below the threshold
LPAVCYDIDI [PTTG2, Q9NZH5] | below the threshold

target: T2, APBA1_2, Q02410; experiment: holdup assay; design: key: below the threshold = too weak to quantify, mostly under pKd 3.1 to 4; conditions: plain residues with an end cap or a label only (N-terminal biotin on a linker: ado-ado)

Binder | pKd
NNNVVKVDSV [MTNR1A, P48039] | 3.92
LPAVCYDIDI [PTTG2, Q9NZH5] | below the threshold

target: T3, APBA2_2, Q99767; experiment: holdup assay; design: key: below the threshold = too weak to quantify, mostly under pKd 3.1 to 4; conditions: plain residues with an end cap or a label only (N-terminal biotin on a linker: ado-ado)

Binder | pKd
NNNVVKVDSV [MTNR1A, P48039] | below the threshold
LPAVCYDIDI [PTTG2, Q9NZH5] | below the threshold

target: T4, ARHGEF11, O15085; experiment: holdup assay; design: key: below the threshold = too weak to quantify, mostly under pKd 3.1 to 4; conditions: plain residues with an end cap or a label only (N-terminal biotin on a linker: ado-ado)

Binder | pKd
NNNVVKVDSV [MTNR1A, P48039] | below the threshold
LPAVCYDIDI [PTTG2, Q9NZH5] | below the threshold

target: T5, DFNB31_1, Q9P202; experiment: holdup assay; design: key: below the threshold = too weak to quantify, mostly under pKd 3.1 to 4; conditions: plain residues with an end cap or a label only (N-terminal biotin on a linker: ado-ado)

Binder | pKd
NNNVVKVDSV [MTNR1A, P48039] | below the threshold
LPAVCYDIDI [PTTG2, Q9NZH5] | below the threshold

target: DLG2_3, Q15700; experiment: holdup assay; design: key: below the threshold = too weak to quantify, mostly under pKd 3.1 to 4; conditions: plain residues with an end cap or a label only (N-terminal biotin on a linker: ado-ado)

Binder | pKd
NNNVVKVDSV [MTNR1A, P48039] | 3.54
LPAVCYDIDI [PTTG2, Q9NZH5] | 3.63

target: T6, DLG3_3, Q92796; experiment: holdup assay; design: key: below the threshold = too weak to quantify, mostly under pKd 3.1 to 4; conditions: plain residues with an end cap or a label only (N-terminal biotin on a linker: ado-ado)

Binder | pKd
NNNVVKVDSV [MTNR1A, P48039] | below the threshold
LPAVCYDIDI [PTTG2, Q9NZH5] | below the threshold

target: DLG5_1, Q8TDM6; experiment: holdup assay; design: key: below the threshold = too weak to quantify, mostly under pKd 3.1 to 4; conditions: plain residues with an end cap or a label only (N-terminal biotin on a linker: ado-ado)
Sequence (Q8TDM6 617-713): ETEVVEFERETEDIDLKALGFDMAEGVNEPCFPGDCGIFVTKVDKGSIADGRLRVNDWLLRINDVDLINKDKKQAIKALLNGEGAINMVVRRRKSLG

Binder | pKd
NNNVVKVDSV [MTNR1A, P48039] | below the threshold
LPAVCYDIDI [PTTG2, Q9NZH5] | below the threshold

target: GRID2IP_2, A4D2P6; experiment: holdup assay; design: key: below the threshold = too weak to quantify, mostly under pKd 3.1 to 4; conditions: plain residues with an end cap or a label only (N-terminal biotin on a linker: ado-ado)
Sequence (A4D2P6 272-370): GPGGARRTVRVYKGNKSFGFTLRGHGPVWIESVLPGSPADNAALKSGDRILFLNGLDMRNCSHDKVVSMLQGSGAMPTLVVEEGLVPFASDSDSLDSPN

Binder | pKd
NNNVVKVDSV [MTNR1A, P48039] | below the threshold
LPAVCYDIDI [PTTG2, Q9NZH5] | below the threshold

target: T7, GRIP1_2, Q9Y3R0; experiment: holdup assay; design: key: below the threshold = too weak to quantify, mostly under pKd 3.1 to 4; conditions: plain residues with an end cap or a label only (N-terminal biotin on a linker: ado-ado)

Binder | pKd
NNNVVKVDSV [MTNR1A, P48039] | below the threshold
LPAVCYDIDI [PTTG2, Q9NZH5] | below the threshold

target: T8, GRIP1_3, Q9Y3R0; experiment: holdup assay; design: key: below the threshold = too weak to quantify, mostly under pKd 3.1 to 4; conditions: plain residues with an end cap or a label only (N-terminal biotin on a linker: ado-ado)

Binder | pKd
NNNVVKVDSV [MTNR1A, P48039] | below the threshold
LPAVCYDIDI [PTTG2, Q9NZH5] | below the threshold

target: T9, GRIP1_4, Q9Y3R0; experiment: holdup assay; design: key: below the threshold = too weak to quantify, mostly under pKd 3.1 to 4; conditions: plain residues with an end cap or a label only (N-terminal biotin on a linker: ado-ado)

Binder | pKd
NNNVVKVDSV [MTNR1A, P48039] | below the threshold
LPAVCYDIDI [PTTG2, Q9NZH5] | below the threshold

target: GRIP2_5, Q9C0E4; experiment: holdup assay; design: key: below the threshold = too weak to quantify, mostly under pKd 3.1 to 4; conditions: plain residues with an end cap or a label only (N-terminal biotin on a linker: ado-ado)
Sequence (Q9C0E4 544-642): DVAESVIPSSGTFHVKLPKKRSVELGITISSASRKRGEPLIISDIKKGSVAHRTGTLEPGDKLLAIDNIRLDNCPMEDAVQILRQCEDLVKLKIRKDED

Binder | pKd
NNNVVKVDSV [MTNR1A, P48039] | below the threshold
LPAVCYDIDI [PTTG2, Q9NZH5] | below the threshold

target: T10, HTRA4, P83105; experiment: holdup assay; design: key: below the threshold = too weak to quantify, mostly under pKd 3.1 to 4; conditions: plain residues with an end cap or a label only (N-terminal biotin on a linker: ado-ado)

Binder | pKd
NNNVVKVDSV [MTNR1A, P48039] | 3.82
LPAVCYDIDI [PTTG2, Q9NZH5] | 3.96

target: IL16_1, Q14005; experiment: holdup assay; design: key: below the threshold = too weak to quantify, mostly under pKd 3.1 to 4; conditions: plain residues with an end cap or a label only (N-terminal biotin on a linker: ado-ado)
Sequence (Q14005 210-306): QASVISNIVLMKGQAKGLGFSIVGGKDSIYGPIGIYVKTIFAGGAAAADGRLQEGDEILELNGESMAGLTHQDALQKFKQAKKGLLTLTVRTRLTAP

Binder | pKd
NNNVVKVDSV [MTNR1A, P48039] | below the threshold
LPAVCYDIDI [PTTG2, Q9NZH5] | below the threshold

target: IL16_3, Q14005; experiment: holdup assay; design: key: below the threshold = too weak to quantify, mostly under pKd 3.1 to 4; conditions: plain residues with an end cap or a label only (N-terminal biotin on a linker: ado-ado)
Sequence (Q14005 1107-1207): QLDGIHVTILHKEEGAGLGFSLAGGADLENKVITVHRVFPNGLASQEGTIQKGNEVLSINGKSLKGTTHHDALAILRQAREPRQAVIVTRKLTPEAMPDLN

Binder | pKd
NNNVVKVDSV [MTNR1A, P48039] | below the threshold
LPAVCYDIDI [PTTG2, Q9NZH5] | below the threshold

target: Inadl_4, Q8NI35; experiment: holdup assay; design: key: below the threshold = too weak to quantify, mostly under pKd 3.1 to 4; conditions: plain residues with an end cap or a label only (N-terminal biotin on a linker: ado-ado)
Sequence (Q8NI35 547-651): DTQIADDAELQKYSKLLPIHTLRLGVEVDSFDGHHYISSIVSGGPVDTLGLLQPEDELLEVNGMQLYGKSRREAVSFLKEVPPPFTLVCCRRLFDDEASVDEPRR

Binder | pKd
NNNVVKVDSV [MTNR1A, P48039] | below the threshold
LPAVCYDIDI [PTTG2, Q9NZH5] | below the threshold

target: MAST1, Q9Y2H9; experiment: holdup assay; design: key: below the threshold = too weak to quantify, mostly under pKd 3.1 to 4; conditions: plain residues with an end cap or a label only (N-terminal biotin on a linker: ado-ado)
Sequence (Q9Y2H9 962-1065): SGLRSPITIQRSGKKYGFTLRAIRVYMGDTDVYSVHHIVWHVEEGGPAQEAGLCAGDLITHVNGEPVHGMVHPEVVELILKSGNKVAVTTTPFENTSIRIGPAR

Binder | pKd
NNNVVKVDSV [MTNR1A, P48039] | below the threshold
LPAVCYDIDI [PTTG2, Q9NZH5] | 4.08

target: T11, MPP6, Q9NZW5; experiment: holdup assay; design: key: below the threshold = too weak to quantify, mostly under pKd 3.1 to 4; conditions: plain residues with an end cap or a label only (N-terminal biotin on a linker: ado-ado)

Binder | pKd
NNNVVKVDSV [MTNR1A, P48039] | below the threshold
LPAVCYDIDI [PTTG2, Q9NZH5] | 3.54

target: T12, MPP7, Q5T2T1; experiment: holdup assay; design: key: below the threshold = too weak to quantify, mostly under pKd 3.1 to 4; conditions: plain residues with an end cap or a label only (N-terminal biotin on a linker: ado-ado)

Binder | pKd
NNNVVKVDSV [MTNR1A, P48039] | below the threshold
LPAVCYDIDI [PTTG2, Q9NZH5] | 4.27

target: NHERF2_2, Q15599; experiment: holdup assay; design: key: below the threshold = too weak to quantify, mostly under pKd 3.1 to 4; conditions: plain residues with an end cap or a label only (N-terminal biotin on a linker: ado-ado)
Sequence (Q15599 142-238): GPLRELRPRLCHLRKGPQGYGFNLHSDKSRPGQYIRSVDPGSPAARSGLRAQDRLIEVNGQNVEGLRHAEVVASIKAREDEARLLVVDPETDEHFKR

Binder | pKd
NNNVVKVDSV [MTNR1A, P48039] | below the threshold
LPAVCYDIDI [PTTG2, Q9NZH5] | below the threshold

target: PARD3_3, Q8TEW0; experiment: holdup assay; design: key: below the threshold = too weak to quantify, mostly under pKd 3.1 to 4; conditions: plain residues with an end cap or a label only (N-terminal biotin on a linker: ado-ado)
Sequence (Q8TEW0 582-685): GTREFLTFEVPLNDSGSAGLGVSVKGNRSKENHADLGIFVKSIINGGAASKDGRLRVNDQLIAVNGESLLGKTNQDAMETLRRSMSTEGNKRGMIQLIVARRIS

Binder | pKd
NNNVVKVDSV [MTNR1A, P48039] | below the threshold
LPAVCYDIDI [PTTG2, Q9NZH5] | 4.29

target: T13, PDZD7_3, Q9H5P4; experiment: holdup assay; design: key: below the threshold = too weak to quantify, mostly under pKd 3.1 to 4; conditions: plain residues with an end cap or a label only (N-terminal biotin on a linker: ado-ado)

Binder | pKd
NNNVVKVDSV [MTNR1A, P48039] | below the threshold
LPAVCYDIDI [PTTG2, Q9NZH5] | below the threshold

target: T14, SNTG2, Q9NY99; experiment: holdup assay; design: key: below the threshold = too weak to quantify, mostly under pKd 3.1 to 4; conditions: plain residues with an end cap or a label only (N-terminal biotin on a linker: ado-ado)

Binder | pKd
NNNVVKVDSV [MTNR1A, P48039] | below the threshold
LPAVCYDIDI [PTTG2, Q9NZH5] | below the threshold

— paper PMC9482650, “Quantitative fragmentomics allow affinity mapping of interactomes” (Nature Communications, 2022)
